Results: PMC9001643 (Scientific Reports, 2022)

Molecular target: the molecule itself
Experiment: crystal structure; His6-dmJMJD7.Mn(II).ligand complexes (2OG, succinate, N-oxalylglycine, 2,4-PDCA, N-oxalyl-D-alanine, N-oxalyl-D-phenylalanine); sitting drops at 25 °C, 0.1 M Bis-Tris pH 5.4, 0.3 M magnesium chloride, 18-23% PEG 3350; two molecules per asymmetric unit, space group P2_(1)

B1: Drosophila melanogaster Jumonji domain-containing 7 (His6-dmJMJD7) (enzyme, UniProt Q9VU77 1-316, looked up)
chain: MSEVERALDVLLQEAEELCIGSSVVELDRIPTALEFCREFYSKNQPVVIRKALNWPAIGKWTPKYLIEALGDRSVDVAITPNGYADGLATQNGQEYFVLPLETKMKLSEVVRRLDDPTGAVHYIQKQNSNLSVDLPELAADLRVSDLDFAQQSFNKPPDAVNFWLGDERAVTSMHKDPYENVYCVISGHKDFVLIPPHQLSCVPRGIYPTGVYKTSDSGQFYIEPLRDEEGSDQFTEWVSVDPLSPDLAKYPEYARAKPLKVRVHAGDILYLPNYWFHHVSQSHKCIAVNFWYDLDYDSRYCYYRMLEQMTSARSG
notes: JMJD7 of Drosophila melanogaster, full length, aa 1-316, UniProt Q9VU77, cloned into pET28a; Homodimer in the crystals; the two monomers are covalently linked by a disulfide bond Cys37-Cys37'; Crystallised with Mn(II) in place of Fe(II) and with 2OG, succinate or a 2OG analogue; also called JMJD7_DROME; not shown: His6, N-terminal, kept
stoichiometry N: 2
